This assay has as its target Human AP endonuclease 1 (human, UniProt P27695 1-318). The assay is described as follows: pull-down.

Sequence of Human AP endonuclease 1 (P27695 whole entry): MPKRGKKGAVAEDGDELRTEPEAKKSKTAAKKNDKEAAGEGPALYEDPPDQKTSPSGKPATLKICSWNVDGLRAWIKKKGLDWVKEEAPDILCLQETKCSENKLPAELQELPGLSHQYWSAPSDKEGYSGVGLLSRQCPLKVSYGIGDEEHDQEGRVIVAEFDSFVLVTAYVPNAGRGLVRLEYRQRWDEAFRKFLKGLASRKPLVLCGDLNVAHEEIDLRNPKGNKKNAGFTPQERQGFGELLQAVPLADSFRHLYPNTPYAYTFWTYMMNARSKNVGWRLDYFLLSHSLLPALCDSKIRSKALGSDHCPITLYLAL

B1: his-Rad1 (individual subunit) (natural protein, human, UniProt O60671 1-282, looked up)
chain: MPLLTQQIQDEDDQYSLVASLDNVRNLSTILKAIHFREHATCFATKNGIKVTVENAKCVQANAFIQAGIFQEFKVQEESVTFRINLTVLLDCLSIFGSSPMPGTLTALRMCYQGYGYPLMLFLEEGGVVTVCKINTQEPEETLDFDFCSTNVINKIILQSEGLREAFSELDMTSEVLQITMSPDKPYFRLSTFGNAGSSHLDYPKDSDLMEAFHCNQTQVNRYKISLLKPSTKALVLSCKVSIRTDNRGFLSLQYMIRNEDGQICFVEYYCCPDEEVPESES
Take B1: the binding result is “binds”.

B2: his-Hus1 (individual subunit) (natural protein, human, UniProt O60921 1-280, looked up)
chain: MKFRAKIVDGACLNHFTRISNMIAKLAKTCTLRISPDKLNFILCDKLANGGVSMWCELEQENFFNEFQMEGVSAENNEIYLELTSENLSRALKTAQNARALKIKLTNKHFPCLTVSVELLSMSSSSRIVTHDIPIKVIPRKLWKDLQEPVVPDPDVSIYLPVLKTMKSVVEKMKNISNHLVIEANLDGELNLKIETELVCVTTHFKDLGNPPLASESTHEDRNVEHMAEVHIDIRKLLQFLAGQQVNPTKALCNIVNNKMVHFDLLHEDVSLQYFIPALS
Turning to B2, the binding result is given as “binds”.

For the origin of these results see article PMC1885638 (Nucleic Acids Research, 2007).
